For orientation: Kd means the free concentration of one partner at which half of the binding sites on the other are occupied at equilibrium, for simple one-to-one binding. The koff is a measure of how fast the partners let go of each other. What is called kon is the second-order rate constant of association. One may read the IC50 as the concentration that inhibits the measured activity by half.

For assay [1], the target named is human HER3:human NRG1 complex (human) (UniProt P21860). Briefly: BLI (Octet QK384), antibody captured on AHC sensors, HER3-NRG1 complex (1:1 molar ratio) in solution. (BLI is a label-free optical method that tracks binding on a fibre tip over time.)
Assay [2] deals with FcRn (human) (UniProt P55899). Briefly: Bio-Layer Interferometry (determined as described in Example 7).
Assay [3] concerns the target FcgRIIA (H167) (human) (UniProt P12318). The assay is described as above.
Assay [4] deals with FcgRIIA (R167) (human) (UniProt P12318). The assay is described as above.
FcgRIIA (R167) (human), sequence (P12318 36-218 H167R limits assumed): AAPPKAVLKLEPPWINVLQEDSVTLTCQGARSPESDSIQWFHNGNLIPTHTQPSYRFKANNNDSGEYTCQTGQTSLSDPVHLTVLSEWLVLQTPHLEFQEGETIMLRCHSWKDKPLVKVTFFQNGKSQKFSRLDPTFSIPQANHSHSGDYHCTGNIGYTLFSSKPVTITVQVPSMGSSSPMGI
In assay [5] the target is FcgRIIB (human) (UniProt P31994). The description is as above.
FcgRIIB (human), sequence (P31994 46-217 limits assumed): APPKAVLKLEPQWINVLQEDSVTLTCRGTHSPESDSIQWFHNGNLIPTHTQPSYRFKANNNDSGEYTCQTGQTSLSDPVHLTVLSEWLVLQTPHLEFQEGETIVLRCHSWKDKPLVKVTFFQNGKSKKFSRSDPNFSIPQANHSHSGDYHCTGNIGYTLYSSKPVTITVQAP
In assay [6] the target is His-tagged FcγRIIIa (V158) (human) (UniProt P08637). Described as above.
In assay [7] the target is moFcRn (mouse) (UniProt Q61559). The description is as above.
Assay [8] concerns the target recombinant biotinylated human HER3 protein (human) (UniProt P21860). As to the kind of experiment: plate ELISA dimerisation assay; human EGFR-His coated, constant HER3-biotin and NRG, antibody varied; blocked partner EGFR-His. For orientation: ELISA stands for enzyme-linked immunosorbent assay.
The target in assay [9] is His-tagged human HER3 (human) (UniProt P21860). As to the kind of experiment: BLI competition: His-tagged human HER3 on anti-Penta-HIS tips saturated with LJM-716 (400 nM), then MM-121 as competing antibody (300 nM); no unit in the table, the y axis of FIG. 14A is Shift (nm).

FcgRIIA (H167) (human), sequence (P12318 36-218 limits assumed): as the sequence (P12318 36-218 H167R limits assumed) above, with R132H counted along it

B1: LJM716 (antibody, INN chains, looked up, human IgG1, V domains shown)
VH: EVQLLESGGGLVQPGGSLRLSCAASGFTFSSYAMSWVRQAPGKGLEWVSAINSQGKSTYYADSVKGRFTISRDNSKNTLYLQMNSLRAEDTAVYYCARWGDEGFDIWGQGTLVTVSS
VL: DIQMTQSPSSLSASVGDRVTITCRASQGISNWLAWYQQKPGKAPKLLIYGASSLQSGVPSRFSGSGSGTDFTLTISSLQPEDFATYYCQQYSSFPTTFGQGTKVEIK
In the case of B1, the Kd in [1] was found to be 16.8 nM.

B2: MM-121 (antibody, INN chains, looked up, human IgG2)
heavy: EVQLLESGGGLVQPGGSLRLSCAASGFTFSHYVMAWVRQAPGKGLEWVSSISSSGGWTLYADSVKGRFTISRDNSKNTLYLQMNSLRAEDTAVYYCTRGLKMATIFDYWGQGTLVTVSSASTKGPSVFPLAPCSRSTSESTAALGCLVKDYFPEPVTVSWNSGALTSGVHTFPAVLQSSGLYSLSSVVTVPSSNFGTQTYTCNVDHKPSNTKVDKTVERKCCVECPPCPAPPVAGPSVFLFPPKPKDTLMISRTPEVTCVVVDVSHEDPEVQFNWYVDGVEVHNAKTKPREEQFNSTFRVVSVLTVVHQDWLNGKEYKCKVSNKGLPAPIEKTISKTKGQPREPQVYTLPPSREEMTKNQVSLTCLVKGFYPSDIAVEWESNGQPENNYKTTPPMLDSDGSFFLYSKLTVDKSRWQQGNVFSCSVMHEALHNHYTQKSLSLSPG
light: QSALTQPASVSGSPGQSITISCTGTSSDVGSYNVVSWYQQHPGKAPKLIIYEVSQRPSGVSNRFSGSKSGNTASLTISGLQTEDEADYYCCSYAGSSIFVIFGGGTKVTVLGQPKAAPSVTLFPPSSEELQANKATLVCLVSDFYPGAVTVAWKADGSPVKVGVETTKPSKQSNNKYAASSYLSLTPEQWKSHRSYSCRVTHEGSTVEKTVAPAECS
In the case of B2, the Kd in [2] turned out to be 11.5 nM; in assay [3], 222 nM; in assay [4] it was 243 nM; in assay [5], 1440 nM; in [6], 7050 nM; in assay [7] it was 6.69 nM. In [1], the Kd was found to be 1.92 nM. The koff in assay [1] was 0.000231 s⁻¹. The kon in [1] is 120000 M⁻¹ s⁻¹. Besides, in assay [8], the 50% inhibitory concentration (IC50) turned out to be 54.2 nM. Further, in assay [9], the response of the competing antibody (competition table) stood at 0.693.

For the origin of these results see patent publication US20250122303A1, “TREATMENT AND PREVENTION OF CANCER USING HER3 ANTIGEN-BINDING MOLECULES” (Hummingbird Bioscience Pte. Ltd., priority 2021, published 2025).
